pKd: −log10 of the molar value.
Target: Fibroblast activation protein (FAP), recombinant human, carrier-free (BioLegend) (Homo sapiens) (UniProt Q12884)
Assay: CE-LIF (NECEEM)
Details: CE-LIF/NECEEM: buffer for Kd not stated, CE separation (SELEX) 20 kV, 25 C, specificity: 10 min at 37 C, PBS pH 7.2 as control, AuNP assay: room temperature …

UniProt Q12884, sequence (Q12884 whole entry): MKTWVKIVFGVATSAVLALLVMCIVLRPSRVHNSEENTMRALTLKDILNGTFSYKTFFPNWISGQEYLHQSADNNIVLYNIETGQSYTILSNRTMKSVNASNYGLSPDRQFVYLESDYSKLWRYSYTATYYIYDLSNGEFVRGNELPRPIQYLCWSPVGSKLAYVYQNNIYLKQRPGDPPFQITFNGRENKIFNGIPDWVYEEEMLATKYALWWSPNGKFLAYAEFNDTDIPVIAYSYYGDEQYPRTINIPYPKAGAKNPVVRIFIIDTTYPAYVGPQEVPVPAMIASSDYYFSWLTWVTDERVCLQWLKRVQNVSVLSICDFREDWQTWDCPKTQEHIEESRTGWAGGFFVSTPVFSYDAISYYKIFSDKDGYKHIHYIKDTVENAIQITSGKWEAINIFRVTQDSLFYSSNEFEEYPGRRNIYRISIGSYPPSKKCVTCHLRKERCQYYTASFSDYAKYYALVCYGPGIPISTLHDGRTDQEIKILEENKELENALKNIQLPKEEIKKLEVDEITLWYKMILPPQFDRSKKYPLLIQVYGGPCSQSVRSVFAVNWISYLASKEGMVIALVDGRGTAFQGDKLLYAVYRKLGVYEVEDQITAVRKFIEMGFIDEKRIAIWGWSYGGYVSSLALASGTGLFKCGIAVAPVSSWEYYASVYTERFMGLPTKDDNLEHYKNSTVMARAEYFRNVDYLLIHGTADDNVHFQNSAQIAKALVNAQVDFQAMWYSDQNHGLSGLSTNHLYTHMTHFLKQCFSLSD

Sequence	pKd (exact value only in figure)	pKd	also measured
AGCAGCACAGAGGTCAGATGGCCATCCCCCCGTCCGATGAGTGGTGCTCCTATGCGTTCCCCTATGCGTGCTACCGTGAA [AptFAP-A3]	< 6.00		
AGCAGCACAGAGGTCAGATGGCCACATTAGTCTCACCACTACCTGCGTACCTACCGCCGCCCTATGCGTGCTACCGTGAA [AptFAP-A2]			pKd (lowest affinity of the five, exact value only in figure): < 6.00
AGCAGCACAGAGGTCAGATGGCGAAGCGTACCGGCTACCCAGTGACAGTCGCCGTGGGTCCCTATGCGTGCTACCGTGAA [AptFAP-A1]		6.30	
AGCAGCACAGAGGTCAGATGCCGCAGGCAGCTGCCATTAGTCTCTATCCGTGACGGTATGCCTATGCGTGCTACCGTGAA [AptFAP-A4]		6.30	
AGCAGCACAGAGGTCAGATGGCAGCTAAGCAGGCGGCTCACAAAACCATTCGCATGCGGCCCTATGCGTGCTACCGTGAA [AptFAP-A5]	< 6.00		
